Substitutions are numbered along the chain they refer to. In names and notes the source's numbering stands.
Legend:
[1] = target: the molecule itself; assay: cross-linking; in vivo cysteine crosslinking of E. coli cells in cold PBS with 0.5 mM BMB or BMH for 10 min, quenched with 40 mM BME; SDS-PAGE and anti-FtsA immunoblot; dividing cells (ftsZ84(ts) 10 and 20 min after return to 30°C; ftsQ1ts, zipA1ts and ftsA^o strains at 30°C, ftsA^o strain also at 42°C; WM4952 at 37°C; WM4953 ftsL*)
[2] = target: the molecule itself; assay: cross-linking; in vivo cysteine crosslinking, ftsQ1(ts) strain WM7148 shifted to the nonpermissive 42°C; anti-FtsA immunoblot
[3] = target: the molecule itself; assay: cross-linking; in vivo cysteine crosslinking, zipA1(ts) strain WM7149 shifted to the nonpermissive 42°C; anti-FtsA immunoblot

B1: FtsA^M71A with Q155C (natural protein, E. coli, UniProt P0ABH0 1-420, looked up)
chain: MIKATDRKLVVGLEIGTAKVAALVGEVLPDGMVNIIGVGSCPSRGMDKGGVNDLESVVKCVQRAIDQAELAADCQISSVYLALSGKHISCQNEIGMVPISEEEVTQEDVENVVHTAKSVRVRDEHRVLHVIPQEYAIDYQEGIKNPVGLSGVRMCAKVHLITCHNDMAKNIVKAVERCGLKVDQLIFAGLASSYSVLTEDERELGVCVVDIGGGTMDIAVYTGGALRHTKVIPYAGNVVTSDIAYAFGTPPSDAEAIKVRHGCALGSIVGKDESVEVPSVGGRPPRSLQRQTLAEVIEPRYTELLNLVNEEILQLQEKLRQQGVKHHLAAGIVLTGGAAQIEGLAACAQRVFHTQVRIGAPLNITGLTDYAQEPYYSTAVGLLHYGKESHLNGEAEVEKRVTASVGSWIKRLNSWLRKEF
notes: FtsA of E. coli with M71A and Q155C; M71A introduced into pWM7049 or pWM7239 by site-directed mutagenesis; I take them to be the Q155C and the R286W Q155C derivatives of pDSW210-FLAG-FtsA; source: E. coli, expressed from a plasmid, in cells (crosslinked in vivo)
- DS filament crosslinking at Q155C relative to WT FtsA [1]: ~35 % of WT levels

B2: FLAG-FtsA^Q155C (natural protein, E. coli, UniProt P0ABH0 1-420, looked up)
chain: B1 chain with A71M
notes: FtsA of E. coli with Q155C, made by site-directed mutagenesis on pWM2785 (pDSW210-FLAG-FtsA); probably the whole FtsA reading frame, since it complements an ftsA null allele; also called pDSW210-FLAG-FtsA^Q155C; source: E. coli, expressed from pDSW210 with IPTG, in cells (crosslinked in vivo); not shown: FLAG, N-terminal, kept
- fold decrease of the crosslinked band at 42°C against 30°C [2]: 3 fold
- fold decrease of the crosslinked band at 42°C against 30°C [3]: 7.5 fold

Source: doi:10.1101/2024.06.24.600433, “Role of the antiparallel double-stranded filament form of FtsA in activating the Escherichia coli divisome” (bioRxiv, 2024)
